Experimental data taken from patent publication WO2016038310A1.
Where “and” joins values, the source holds several entries; their conditions need not be identical. Equal entries are not always repeated.

Assays:
[1] = target: les eCG et hCG (equine and human chorionic gonadotropins); experiment: ELISA saturation binding, Kd estimated with GraphPad Prism
[2] = target: les FSH ovine et humaine (ovine and human FSH); experiment: as above

Kd [2]: 3.12 µM and 4.62 µM
B1: scFv A8 (scFv)
scFv: QVQLQQSGGGLVQPGGSRKLSCAASGFTFSDFGTHWIRQAPEKGLEWVAYISSGSSTRYYADTVKGRFTISRDDPKNTLFLQMTSLRSEDTAMYYCARSYDGYHVPSFAYWGQGTLVTVSAGGGGSGGGGSGGGGSDIQMTQTPLSLSVSLGDQASISCRSSQNIVHSNGNTYLEWYLQKPGQSPKLLIYRVSNRFSGIPDRFSGSSSGTDFTLKISRVEAEDLGVYYCFQGSHVPLTFGAGTKLELKHHHHHH
Kd [1]: 5.78 µM and 22.2 µM
